US11813311B2, “Treatment and prevention of metabolic diseases” (Singapore Health Services PTE LTD., priority 2019, dated 2023)

Experiments:
[1] = tested on: mice with UUO-induced kidney injury; assay: Weight loss after UUO-induced acute kidney injury; type: in vivo, mouse; conditions: 20 mg/kg 2×/week from day 4 post-UUO
Method: In further experiments, mice were subjected to unilateral ureter obstruction (UUO)-induced acute kidney injury. UUO surgeries were carried out on 12-week old mice. Briefly, mice were anesthetized by IP injection of ketamine (100 mg/kg)/xylazine (10 mg/kg) and full depth of anaesthesia was accessed with the pedal reflex. Mice were then shaved on the left side of the abdomen. A vertical incision was made through the skin with a scalpel, a second incision was made through the peritoneum to reveal the kidney. Using forceps, the kidney was brought to the surface and the ureter was tied with surgical silk, twice, below the kidney. The ligated kidney was placed gently back into its correct anatomical position and sterile saline was added to replenish loss of fluid. The incisions were then sutured. Animals were post-operatively treated with antibiotic enrofloxacin (15 mg/kg, SC) and analgesic buprenorphine (0.1 mg/kg, SC) for three consecutive days. Mice were sacrificed 10 days post-ligation. Mice were intraperitoneally injected with 20 mg/kg (2×/week) of anti-IL-11 antibody or identical concentration of IgG isotype control from day 4 post-surgery until the mice were sacrificed.

MCD-fed db/db mice = assay: MCD-fed db/db mouse NASH model; type: in vivo
Method: FIGS. 20A to 20N. Therapeutic targeting of Il-11 inhibits and reverses NASH pathologies in preclinical models. (A) Schematic showing therapeutic use of X203 and X209 (10 mg/kg, biweekly) in HFMCD-fed mice for experiments shown in (B-E). X203, X209 or IgG isotype control were administered from week 6 to 10 of HFMCD diet. (B) Representative liver histological images (Masson's Trichrome staining; scale bars, 100 μm), (C) relative liver hydroxyproline content, (D) relative liver pro-inflammatory mRNA expression levels (n≥6/group) and (E) serum ALT levels. (F) Western blots of hepatic Erk activation status. (G) Schematic of X203 or IgG administration to MCD-fed db/db mice for experiments shown in H-N. Western blots of hepatic (H) Il-11 and Gapdh, (I) p-Erk and Erk. (J) Representative Masson's Trichrome images of liver from X203 or IgG-treated MCD-fed db/db mice (scale bars, 100 μm). The levels of (K) hepatic triglyceride, (L) relative liver hydroxyproline, (M) serum ALT, and (N) mRNA expression of liver pro-inflammatory markers (n≥5/group). (C-E,K-N) Data are shown as box-and-whisker with median (middle line), 25th-75th percentiles (box) and min-max percentiles (whiskers); two-tailed, Tukey-corrected Student's t-test. FC: fold change; NC: normal chow; HFMCD: high fat methionine- and choline-deficient; MCD: methionine- and choline-deficient.
Male BKS.Cg-Dock7m+/+LeprdbJ (db/db) mice on C57BL/6J genetic background were 12 weeks of age and at the hepatic steatosis stage when they were fed methionine- and choline-deficient diet (MCD, A02082002BRi, Research Diets) for 8 weeks; control mice were of the same genotype. Durations of diet and antibody therapies are described.
(§1) Mice were injected intraperitoneally with either antagonist anti-IL-11 antibody, antagonist anti-IL11RA antibody or an identical amount of IgG isotype control for the treatment durations outlined in the figures.

WDF-fed mice = assay: WDF NASH reversal model (Example 4); type: in vivo, mouse; conditions: WDF 16 weeks, then 10 mg/kg for 8 weeks on continued WDF
Method: FIGS. 21A to 21L. Inhibition of Il-11 signalling reverses NASH pathologies in preclinical models and HSC-to-myofibroblast transformation. (A) Schematic showing therapeutic dosing regime in NASH reversal experiment for data shown in (B-G). Mice were fed with WDF for 16 weeks to induce NASH and then treated with (10 mg/kg) X209 or IgG for 8 weeks while they were on continuous WDF feeding. (B) Total liver hydroxyproline content, the levels of (C) liver triglycerides, (D) serum ALT, (E), fasting blood glucose, (F) serum triglycerides, and (G) serum cholesterol in mice on NC and IgG- and X209-treated WDF (n≥5/group). (H) Schematic showing reversal experiment in which fibrosis was established by feeding mice HFMCD for 10 weeks and then replacing this with NC and initiating antibody (X203 and X209) therapy. Mice were euthanized at the indicated time points. (I) Total liver hydroxyproline content (dotted line represents the mean value of NC=0.93) and (J) relative mRNA expression of Mmp2/Timp1 at 1-, 3-, 6-weeks after concurrent metabolic intervention (diet switch) and X203, X209, or IgG treatment (n≥3/group). Quantification of ACTA2^+ve immunostaining (scale bars, 200 μm) following incubation (K) with TGFβ1 or (L) with PDGF, either prior to or after the addition of X203, X209, or IgG (n=5/group). (K-L) TGFβ1 (5 ng/ml), PDGF (20 ng/ml), IgG, X203 and, X209 (2 μg/ml). (B-G, K-L) Data are shown as box-and-whisker with median (middle line), 25th-75th percentiles (box) and min-max percentiles (whiskers); (I) data are shown as mean±s.d; (J) data are represented as line chart (mean) and transparencies indicate s.d. (B) Two-tailed Student's t-test (C-G,K-L) two-tailed, Tukey-corrected Student's t-test; (I-J) two-way ANOVA. FC: fold change; NC: normal chow; WDF: Western diet+15% (w/v) fructose; HFMCD: high fat methionine- and choline-deficient.
Ten week old male C57Bl/6J mice were fed Western diet (D12079B, Research Diets), supplemented with 15% weight/volume fructose in drinking water to mimic NAFLD/NASH like humans 17,18, whereas control mice received normal chow and tap water. Durations of diet and antibody therapies are described.
as §1
Mice were fasted for 6 h prior to blood collection (via tail snip) and Accu-Chek blood glucose meter was used to take fasting glucose measurements.

B1: X203: mouse anti-mouse IL-11 IgG (IgG1κ), neutralising; VH SEQ ID NO:22, VL SEQ ID NO:23 (antibody, V domains shown)
VH: EVQLQQSGPELVKPGASVKIPCKASGYTFTDYNMDWVKQSHGKSLEWIGDINPHNGGPIYNQKFTGKATLTVDKSSSTAYMELRSLTSEDTAVYYCARGELGHWYFDVWGTGTTVTVSS
VL: DIVLTQSPASLAVSLGQRATISCRASKSVSTSGYSYIHWYQQKPGQPPKLLIYLASNLDSGVPARFSGSGSGTDFTLNIHPVEEEDAATYYCQHSRDLPPTFGGGTKLEIK
modifications: Enx203 VH; Enx203 VL
For B1, the “regain of body weight” value [1] was “regained their body weight more quickly than those receiving IgG control”, the “time to return to normal weight” value [1] was ≤ 4 days and the ALT levels (MCD-fed db/db mice) was “lowering”. The “hepatic Erk activation” value (MCD-fed db/db mice) was “inhibited”, the hepatic fibrosis (MCD-fed db/db mice) was “reduced” and the hepatic inflammation (MCD-fed db/db mice) was “reduced”. The hepatic steatosis (MCD-fed db/db mice) was “reduced”.

B2: X209: mouse anti-mouse IL-11Rα IgG (IgG1κ), neutralising; VH SEQ ID NO:24, VL SEQ ID NO:25 (antibody, V domains shown)
VH: QVQLQQPGAELVRPGSSVKLSCKASGYTFTNYWMHWLKQRPVQGLEWIGNIGPSDSKTHYNQKFKDKATLTVDKSSSTAYMQLNSLTSEDSAVYYCARGDYVLFTYWGQGTLVTVSA
VL: DIVLTQSPATLSLSPGERATLSCRASQSISNNLHWYQQKSHEAPRLLIKYASQSISGIPARFSGSGSGTDFTLSFSSLETEDFAVYFCQQSYSWPLTFGQGTKLEIK
modifications: Enx209 VH; Enx209 VL
For B2, the “hepatic Erk activation” value (WDF-fed mice) was “inhibited”, the liver fibrosis (WDF-fed mice) was “reversal” and the liver inflammation (WDF-fed mice) was “reversal”. The liver steatosis (WDF-fed mice) was “reversal”, the “serum ALT levels” value (WDF-fed mice) was “reduction” and the serum cholesterol levels (WDF-fed mice) was “reduction”. For the same molecule, the serum glucose (WDF-fed mice) was “reduction” and the serum triglycerides (WDF-fed mice) was “reduction”.
